{
  "source": "patent US20240199740A1",
  "about": "(Ablynx, published 2024)",
  "binders": {"B1": {"name": "A0110056A10 (VHH)", "VHH": "EVQLVKSGGGLVQAGGSLRLSCAASGITSKINDMGWYRQTPGNYREWVASITATGTTNYRDSVKGRFTISRDNAKSTVYLQMNSLKPEDTTVYYCNTFPPISNFWGQGTLVTVSS", "notes": "Monovalent anti-CD123 Nanobody; also called A0110PMP056A10; A0110056A10-Alexa647; not shown: C-terminal triple Flag, His6 tag"}, "B2": {"name": "A0110055F03 (VHH)", "VHH": "EVQLVESGGGLVQAGGPLRLSCAASGRTFSSYVMGWFRQAPGKEREFVAAIYWSNGKTQYTDSVKGRFTISGDNAKNTVYLQMNSLNPEDTAVYYCVADKDETGFRTLPIAYDYWGQGTQVTVSS", "notes": "Monovalent anti-CD123 Nanobody; also called A0110PMP055F03; A011005F03; not shown: C-terminal triple Flag, His6 tag"}},
  "key": {"[1]": {"biological_target": "T1, human CD123 expressed on cells (human, UniProt P26951 19-378)", "T1 construct": "the cell line is named under assay; also called huCD123; IL-3Rα", "test": "flow cytometry competition, MOLM-13 cells, competitor A0110056A10-Alexa647 (0.7 nM)"}, "[2]": {"biological_target": "T1, human CD123 expressed on cells", "test": "flow cytometry competition, CHO Flp-In human CD123 cells, competitor A0110056A10-Alexa647 (0.5 nM)"}, "[3]": {"biological_target": "T1, human CD123 expressed on cells", "test": "flow cytometry, Alexa647-labelled Nanobody, CHO Flp-In human CD123 cells"}, "[4]": {"biological_target": "T2, recombinant human CD123 protein (R&D Systems, 301-R3/CF) (human, UniProt P26951 19-305)", "T2 construct": "Bought recombinant His-tagged extracellular domain of human CD123; also called recombinant CD123; in house biotinylated-CD123 recombinant protein; not shown: His tag of the bought protein", "T2 sequence": "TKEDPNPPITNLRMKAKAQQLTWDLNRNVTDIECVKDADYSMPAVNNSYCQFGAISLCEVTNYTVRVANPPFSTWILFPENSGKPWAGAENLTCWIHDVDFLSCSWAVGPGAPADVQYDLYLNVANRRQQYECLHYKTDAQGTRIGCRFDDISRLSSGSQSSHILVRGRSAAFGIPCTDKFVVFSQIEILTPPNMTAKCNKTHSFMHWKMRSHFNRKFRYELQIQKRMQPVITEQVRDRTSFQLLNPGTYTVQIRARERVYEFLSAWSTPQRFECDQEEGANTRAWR", "test": "competition ELISA, coated antibody 7G3 as competitor, 4 nM biotinylated recombinant CD123"}, "[5]": {"biological_target": "T1, human CD123 expressed on cells", "test": "flow cytometry, KG1a cells"}, "[6]": {"biological_target": "T1, human CD123 expressed on cells", "test": "flow cytometry, Alexa647-labelled Nanobody, MOLM-13 cells"}, "[7]": {"biological_target": "T3, cynomolgus CD123 expressed on HEK Flp-In cells (cynomolgus)", "T3 construct": "EHH61867.1; also called cyCD123; cyno CD123", "T3 chain": "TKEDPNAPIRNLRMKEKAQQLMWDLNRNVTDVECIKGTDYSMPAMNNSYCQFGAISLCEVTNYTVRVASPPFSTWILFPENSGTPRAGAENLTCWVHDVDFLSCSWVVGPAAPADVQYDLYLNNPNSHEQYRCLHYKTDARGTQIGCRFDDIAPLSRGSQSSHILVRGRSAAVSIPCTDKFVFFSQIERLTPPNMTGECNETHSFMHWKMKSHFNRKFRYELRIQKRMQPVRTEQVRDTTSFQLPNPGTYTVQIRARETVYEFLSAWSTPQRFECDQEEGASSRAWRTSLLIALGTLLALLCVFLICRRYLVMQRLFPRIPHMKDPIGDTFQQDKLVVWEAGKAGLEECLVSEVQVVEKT", "test": "flow cytometry, Alexa647-labelled Nanobody, HEK Flp-In cynomolgus CD123 cells"}, "[8]": {"biological_target": "T1, human CD123 expressed on cells", "test": "flow cytometry competition, MOLM-13 cells, competitor A0110056A10-Alexa647 (0.4 nM)"}, "[9]": {"biological_target": "T1, human CD123 expressed on cells", "test": "flow cytometry competition, CHO Flp-In human CD123 cells, competitor APC-labelled antibody 7G3"}, "[10]": {"biological_target": "T1, human CD123 expressed on cells", "test": "flow cytometry competition, CHO Flp-In huCD123 cells, competitor A0110056A10-Alexa647 (0.9 nM)"}, "[11]": {"biological_target": "T1, human CD123 expressed on cells", "test": "flow cytometry, Alexa647-labelled Nanobody, CHO Flp-In huCD123 transfected cells"}, "[12]": {"biological_target": "T3, cynomolgus CD123 expressed on HEK …", "test": "flow cytometry, Alexa647-labelled Nanobody, HEK Flp-In cyCD123 transfected cells"}, "[13]": {"biological_target": "T1, human CD123 expressed on cells", "test": "flow cytometry competition, MOLM-13 cells, competitor APC-labelled antibody 7G3"}, "[14]": {"biological_target": "T1, human CD123 expressed on cells", "test": "flow cytometry, Alexa647-labelled Nanobody, CHO Flp-In human CD123 cells", "remark": "listed apart in the source"}, "[15]": {"biological_target": "T1, human CD123 expressed on cells", "test": "flow cytometry, Alexa647-labelled Nanobody, MOLM-13 cells", "remark": "listed apart in the source"}, "[16]": {"biological_target": "T3, cynomolgus CD123 expressed on HEK …", "test": "flow cytometry competition, HEK Flp-In cyCD123 cells, competitor A0110056A10-Alexa647 (0.9 nM)"}, "[17]": {"biological_target": "T2, recombinant human CD123 protein (R&D …)", "test": "SPR (ProteOn XPR36), CD123 immobilized"}, "[18]": {"biological_target": "T1, human CD123 expressed on cells", "test": "flow cytometry, MOLM-13 cells"}, "[19]": {"biological_target": "T1, human CD123 expressed on cells", "test": "flow cytometry, CHO Flp-In huCD123 transfected cells"}, "[20]": {"biological_target": "T3, cynomolgus CD123 expressed on HEK …", "test": "flow cytometry, HEK Flp-In cyCD123 transfected cells"}},
  "data": [
    {"binder": "B1", "values": [
      {"measurement": "IC50", "setting": "[1]", "value": 1.4, "unit": "nM"},
      {"measurement": "IC50", "setting": "[2]", "value": 6.7, "unit": "nM"},
      {"measurement": "EC50 (read off the curve)", "setting": "[3]", "value": "~3", "unit": "nM"},
      {"measurement": "IC50", "setting": "[4]", "value": 3.1, "unit": "nM"},
      {"measurement": "EC50", "setting": "[5]", "value": 0.5, "unit": "nM"},
      {"measurement": "EC50 (read off the curve)", "setting": "[6]", "value": "~0.7", "unit": "nM"},
      {"measurement": "EC50 (read off the curve)", "setting": "[7]", "value": "~3", "unit": "nM"},
      {"measurement": "IC50", "setting": "[8]", "value": 1.1, "unit": "nM"},
      {"measurement": "IC50", "setting": "[9]", "value": 6.5, "unit": "nM"},
      {"measurement": "IC50", "setting": "[10]", "value": 1.9, "unit": "nM"},
      {"measurement": "EC50", "setting": "[11]", "value": 0.974, "unit": "nM"},
      {"measurement": "EC50", "setting": "[12]", "value": 2.48, "unit": "nM"},
      {"measurement": "IC50", "setting": "[13]", "value": 1.1, "unit": "nM"},
      {"measurement": "EC50 (read off the curve)", "setting": "[14]", "value": "~1", "unit": "nM"},
      {"measurement": "EC50 (read off the curve)", "setting": "[15]", "value": "~0.5", "unit": "nM"},
      {"measurement": "IC50", "setting": "[16]", "value": 7, "unit": "nM"},
      {"measurement": "Kd", "setting": "[17]", "value": 1.5, "unit": "nM"},
      {"measurement": "koff", "setting": "[17]", "value": 0.00079, "unit": "s⁻¹"},
      {"measurement": "kon", "setting": "[17]", "value": 530000, "unit": "M⁻¹ s⁻¹"},
      {"measurement": "EC50", "setting": "[18]", "value": 0.63, "unit": "nM"}
    ]},
    {"binder": "B2", "values": [
      {"measurement": "IC50", "setting": "[1]", "value": "> 100", "unit": "nM"},
      {"measurement": "EC50", "setting": "[19]", "value": 5.94, "unit": "nM"},
      {"measurement": "EC50", "setting": "[20]", "value": 2.53, "unit": "nM"},
      {"measurement": "EC50", "setting": "[5]", "value": "> 100", "unit": "nM"},
      {"measurement": "IC50", "setting": "[13]", "value": 480, "unit": "nM"},
      {"measurement": "Kd", "setting": "[17]", "value": 160, "unit": "nM"},
      {"measurement": "koff", "setting": "[17]", "value": 0.0039, "unit": "s⁻¹"},
      {"measurement": "kon", "setting": "[17]", "value": 25000, "unit": "M⁻¹ s⁻¹"},
      {"measurement": "EC50", "setting": "[18]", "value": "> 100", "unit": "nM"}
    ]}
  ]
}
